Laboratory results taken from patent US20220387578A1.

Experiments:
[1] = biological target: H9 HA A/Hong Kong/1073/99, recombinant (influenza A virus)
[2] = biological target: H7 HA A/Shanghai/2/2013 (H7N9), recombinant uncleaved trimer (influenza A virus)
[3] = biological target: H12 HA A/duck/Alberta/60/1976, recombinant (influenza A virus)
[4] = biological target: H5 HA A/Indonesia/05/2005 (H5N1), recombinant (influenza A virus)
[5] = biological target: H15 HA A/shearwater/Western Australia/2576/1979, recombinant (influenza A virus)
[6] = biological target: H14 HA A/mallard duck/Astrakhan/263/1982, recombinant (influenza A virus)
[7] = biological target: H2 HA A/Singapore/1/1957, recombinant soluble trimer (influenza A virus)
[8] = biological target: H3 HA A/Hong Kong/1/1968 (H3N2), recombinant soluble trimer (influenza A virus), Q91MA7; details: remark: other sources report otherwise

B1: rFluA-20 heavy chain mutant Y34A (antibody, V domains shown)
VH: QVQLQESGPGLVKPSETLSLTCSVSGVSVTSDIAYWTWIRQPPGKGLEWIGYIFYNGDTNYNPSLKSRVTMSIDTSKNEFSLRLTSVTAADTAVYFCARGTEDLGYCSSGSCPNHWGQGTLVTVSS
VL: DIQMTQSPSSLSASIGDRVTITCRPSQNIRSFLNWFQHKPGKAPKLLIYAASNLQSGVPSRFSGSGSGTEFTLTIRSLQPEDFATYYCQQSYNTPPTFGQGTKVEIK
B1 gave an EC50 [1] of 0.21 µg/mL, an EC50 [2] of 0.44 µg/mL and an EC50 [3] of 0.05 µg/mL. For the same binder, the EC50 relative to wild type rFluA-20 [4] was > 100 fold, the EC50 [5] was 0.1 µg/mL and the EC50 [6] was 0.54 µg/mL. For the same binder, the EC50 [7] was 0.11 µg/mL.

B2: rFluA-20 heavy chain mutant T96A (antibody, V domains shown)
VH: QVQLQESGPGLVKPSETLSLTCSVSGVSVTSDIYYWTWIRQPPGKGLEWIGYIFYNGDTNYNPSLKSRVTMSIDTSKNEFSLRLTSVTAADTAVYFCARGAEDLGYCSSGSCPNHWGQGTLVTVSS
VL: DIQMTQSPSSLSASIGDRVTITCRPSQNIRSFLNWFQHKPGKAPKLLIYAASNLQSGVPSRFSGSGSGTEFTLTIRSLQPEDFATYYCQQSYNTPPTFGQGTKVEIK
B2 was tested, and the EC50 [1] was 0.1 µg/mL, the EC50 [2] was 0.37 µg/mL and the EC50 [3] was 0.04 µg/mL. For the same binder, the EC50 [4] was 0.11 µg/mL, the EC50 [5] was 0.07 µg/mL and the EC50 [6] was 0.23 µg/mL. The EC50 [7] was 0.07 µg/mL.

B3: rFluA-20 heavy chain mutant Y100aA (antibody, V domains shown)
VH: QVQLQESGPGLVKPSETLSLTCSVSGVSVTSDIYYWTWIRQPPGKGLEWIGYIFYNGDTNYNPSLKSRVTMSIDTSKNEFSLRLTSVTAADTAVYFCARGTEDLGACSSGSCPNHWGQGTLVTVSS
VL: DIQMTQSPSSLSASIGDRVTITCRPSQNIRSFLNWFQHKPGKAPKLLIYAASNLQSGVPSRFSGSGSGTEFTLTIRSLQPEDFATYYCQQSYNTPPTFGQGTKVEIK
With B3 the EC50 relative to wild type rFluA-20 [1] was > 100 fold, the EC50 relative to wild type rFluA-20 [2] was > 100 fold and the EC50 relative to wild type rFluA-20 [3] was > 100 fold. For the same binder, the EC50 relative to wild type rFluA-20 [4] was > 100 fold, the EC50 relative to wild type rFluA-20 [5] was > 100 fold and the EC50 relative to wild type rFluA-20 [6] was > 100 fold. For the same binder, the EC50 relative to wild type rFluA-20 [7] was > 100 fold.

B4: rFluA-20 heavy chain mutant E97A (antibody, V domains shown)
VH: QVQLQESGPGLVKPSETLSLTCSVSGVSVTSDIYYWTWIRQPPGKGLEWIGYIFYNGDTNYNPSLKSRVTMSIDTSKNEFSLRLTSVTAADTAVYFCARGTADLGYCSSGSCPNHWGQGTLVTVSS
VL: DIQMTQSPSSLSASIGDRVTITCRPSQNIRSFLNWFQHKPGKAPKLLIYAASNLQSGVPSRFSGSGSGTEFTLTIRSLQPEDFATYYCQQSYNTPPTFGQGTKVEIK
B4 gave an EC50 [1] of 0.36 µg/mL, an EC50 [2] of 1 µg/mL and an EC50 [3] of 0.06 µg/mL. The EC50 relative to wild type rFluA-20 [4] was > 100 fold, the EC50 [5] was 0.12 µg/mL and the EC50 [6] was 0.64 µg/mL. For the same binder, the EC50 [7] was 0.13 µg/mL.

B5: rFluA-20 light chain mutant Q55A (antibody, V domains shown)
VH: QVQLQESGPGLVKPSETLSLTCSVSGVSVTSDIYYWTWIRQPPGKGLEWIGYIFYNGDTNYNPSLKSRVTMSIDTSKNEFSLRLTSVTAADTAVYFCARGTEDLGYCSSGSCPNHWGQGTLVTVSS
VL: DIQMTQSPSSLSASIGDRVTITCRPSQNIRSFLNWFQHKPGKAPKLLIYAASNLASGVPSRFSGSGSGTEFTLTIRSLQPEDFATYYCQQSYNTPPTFGQGTKVEIK
B5 was tested, and the EC50 [8] was 0.08 µg/mL.
